Assay results published in PMC5218472 (PLoS Biology, 2017).

Tested on: Ba/F3-gp130-hIL-6R and Ba/F3-gp130-hIL-6R-4N cells
Assay: IL-6R internalization assay (cell-surface turnover, flow cytometry)
Type: cell-based
Details: for IL-6R remaining at the cell surface (0 min = 100), mean: mean of 3
Protocol: Fig 6 N- and O-linked glycosylation are dispensable for intracellular transport and signaling of the IL-6R. (A–G) Equal numbers of Ba/F3-gp130 cells were incubated for 48 h with increasing amounts (0–100 ng/ml) of either IL-6 or Hyper-IL-6. The stably transduced IL-6R variant is indicated above the diagram. One representative experiment out of three performed is shown (mean ± SD, biological triplicates). (H) Equal numbers of Ba/F3-gp130-hIL-6R and Ba/F3-gp130-hIL-6R-4N cells were labeled with an anti-IL-6R antibody and incubated at 37°C for the indicated time periods. The remaining cell-surface expression of the IL-6R was analyzed via flow cytometry. Data shown are the mean ± SD from three independent experiments.
In order to analyze internalization of the IL-6R, 1 x 10^7 cells were washed in PBS, seeded onto a 10 cm dish in serum-free DMEM, and starved for 2 h at 37°C. Afterwards, cells were again washed with PBS, and the IL-6R was labeled with the 4–11 antibody diluted in FACS buffer (1% BSA in PBS). After 1 h incubation on ice, cells were washed and resuspended in 10 ml serum-free DMEM, seeded onto a 10 cm dish, and shifted back to 37°C. At the time points indicated (0–180 min), 1 ml of the cell suspension was taken from the dish, transferred into a 1.5 ml reaction tube, and kept on ice to inhibit further internalization of the IL-6R. After obtaining the last sample, the cells were washed in cold FACS buffer, and the remaining IL-6R on the cell surface was stained with an APC-conjugated anti-mouse mAb. The cells were washed again and analyzed by flow cytometry using the BD Biosciences FACS Canto II (Becton-Dickinson, Heidelberg, Germany).

B1: PV: wild-type human IL-6R, cleavage site Pro-355/Val-356 (protein)
chain: LAPRRCPAQEVARGVLTSLPGDSVTLTCPGVEPEDNATVHWVLRKPAAGSHPSRWAGMGRRLLLRSVQLHDSGNYSCYRAGRPAGTVHLLVDVPPEEPQLSCFRKSPLSNVVCEWGPRSTPSLTTKAVLLVRKFQNSPAEDFQEPCQYSQESQKFSCQLAVPEGDSSFYIVSMCVASSVGSKFSKTQTFQGCGILQPDPPANITVTAVARNPRWLSVTWQDPHSWNSSFYRLRFELRYRAERSKTFTTWMVKDLQHHCVIHDAWSGLRHVVQLRAQEEFGQGEWSEWSPEAMGTPWTESRSPPAENEVSTPMQALTTNKDDDNILFRDSANATSLPVQDSSSVPLPTFLVAGGSLAFGTLLCIAIVLRFKKTWKLRALKEGKTSMHPPYSLGQLVPERPRPTPVLVPLISPPVSPSSLGSDNTSSHNRPDARDPRSPYDISNTDYFFPR
modifications: N-linked glycans at Asn-55, Asn-93, Asn-221, Asn-245 and Asn-350, O-linked glycan at Thr-352 (mapped on sIL-6R shed from transfected HEK293 cells)
- IL-6R remaining at the cell surface (0 min = 100), mean (block 1 (wt), 15 min): 79.6667
- IL-6R remaining at the cell surface (0 min = 100), mean (block 1 (wt), 30 min): 59
- IL-6R remaining at the cell surface (0 min = 100), mean (block 1 (wt), 60 min): 46
- IL-6R remaining at the cell surface (0 min = 100), mean (block 1 (wt), 90 min): 35
- IL-6R remaining at the cell surface (0 min = 100), mean (block 1 (wt), 120 min): 23.6667
- IL-6R remaining at the cell surface (0 min = 100), mean (block 1 (wt), 150 min): 16.6667
- IL-6R remaining at the cell surface (0 min = 100), mean (block 1 (wt), 180 min): 13.3333
- IL-6R remaining at the cell surface (0 min = 100), mean (block 2, 15 min): 85.6667
- IL-6R remaining at the cell surface (0 min = 100), mean (block 2, 30 min): 65
- IL-6R remaining at the cell surface (0 min = 100), mean (block 2, 60 min): 49.3333
- IL-6R remaining at the cell surface (0 min = 100), mean (block 2, 90 min): 45
- IL-6R remaining at the cell surface (0 min = 100), mean (block 2, 120 min): 35.6667
- IL-6R remaining at the cell surface (0 min = 100), mean (block 2, 150 min): 27.6667
- IL-6R remaining at the cell surface (0 min = 100), mean (block 2, 180 min): 24.3333
- t1/2 of IL-6R at the cell surface (pulse-chase with 4-11 antibody, 37°C, flow cytometry, mean ± SD, n = 3): 44.1 ± 8.1 min
